What all share (conditions): both partners purified
The target of test [1] is T1, mCherry-WIPI3 (UniProt Q5MNZ6 1-344).
T1 construct: 6xHis-TEV-mCherry tag; also called mCherry-tagged WIPI3; source: E. coli Rosetta pLysS, purified; not shown: mCherry, N-terminal, kept
The experiment in a line: microscopy-based bead assay; GFP-tagged bait on GFP-trap agarose beads, mCherry-tagged prey in solution, confocal imaging.

Test [2] addresses T2, mCherry-tagged WIPI1 (UniProt Q5MNZ9 1-446).
T2 construct: WIPI1; called purified WIPI1-4 in the results
T2 sequence (looked up): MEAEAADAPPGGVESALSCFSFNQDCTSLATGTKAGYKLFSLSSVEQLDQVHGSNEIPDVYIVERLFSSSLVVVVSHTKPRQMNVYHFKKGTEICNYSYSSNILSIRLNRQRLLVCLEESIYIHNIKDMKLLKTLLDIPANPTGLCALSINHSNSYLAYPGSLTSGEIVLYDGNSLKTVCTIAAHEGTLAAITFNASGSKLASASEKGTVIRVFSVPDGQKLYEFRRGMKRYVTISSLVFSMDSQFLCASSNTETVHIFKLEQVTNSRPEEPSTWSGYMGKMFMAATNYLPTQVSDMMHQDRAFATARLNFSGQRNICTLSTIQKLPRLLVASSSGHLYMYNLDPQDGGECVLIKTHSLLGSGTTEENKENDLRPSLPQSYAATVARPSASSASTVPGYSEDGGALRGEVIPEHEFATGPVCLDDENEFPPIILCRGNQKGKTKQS
Description: microscopy-based bead assay; GST-tagged bait on Glutathione Sepharose 4B beads, GFP- or mCherry-tagged prey in solution, confocal imaging.

Test [3] concerns the target GST-WIPI3 (UniProt Q5MNZ6 1-344). The description is as above.

B1: GFP-tagged ATG13 (206–230 aa) (peptide, UniProt O75143 206-230, looked up)
chain: PIMGIIIDHFVDRPYPSSSPMHPCN
notes: ATG13, residues 206-230; Addgene number by the order of printing; also called ATG13 IDR fragment residues 206–230; source: E. coli Rosetta pLysS, purified; not shown: EGFP, N-terminal, kept
B1: in test [1], the binding result is listed as “binds”.

B2: NIX(1–182)-GST (domain or fragment)
chain: not shown
notes: NIX (BNIP3L), human, cytosol-exposed domain, residues 1-182; transmembrane domain replaced by GST; also called NIX-GST; GST-tagged NIX; source: E. coli Rosetta pLysS, purified; not shown: GST, C-terminal, kept
With B2, the binding result in test [2] is “binds”.

B3: GFP-tagged ATG13 IDR Δ191–205 (205–517 aa) (domain or fragment, UniProt O75143 205-517, looked up)
chain: PPIMGIIIDHFVDRPYPSSSPMHPCNYRTAGEDTGVIYPSVEDSQEVCTTSFSTSPPSQLSSSRLSYQPAALGVGSADLAYPVVFAAGLNATHPHQLMVPGKEGGVPLAPNQPVHGTQADQERLATCTPSDRTHCAATPSSSEDTETVSNSSEGRASPHDVLETIFVRKVGAFVNKPINQVTLTSLDIPFAMFAPKNLELEDTDPMVNPPDSPETESPLQGSLHSDGSSGGSSGNTHDDFVMIDFKPAFSKDDILPMDLGTFYREFQNPPQLSSLSIDIGAQSMAEDLDSLPEKLAVHEKNVREFDAFVETLQ
notes: Addgene number by the order of printing; source: E. coli Rosetta pLysS, purified; not shown: EGFP, N-terminal, kept
Take B3: the binding result in test [1] is given as “binds”.

B4: GFP-tagged ATG13 (191–230 aa) (peptide, UniProt O75143 191-230, looked up)
chain: INLAFMSTRQFERTPPIMGIIIDHFVDRPYPSSSPMHPCN
notes: as for B3
In the case of B4, the binding result in test [1] is reported as “binds”.

B5: mCherry-tagged ATG13 IDR (191–517 aa) (domain or fragment, UniProt O75143 191-517, looked up)
chain: INLAFMSTRQFERTPPIMGIIIDHFVDRPYPSSSPMHPCNYRTAGEDTGVIYPSVEDSQEVCTTSFSTSPPSQLSSSRLSYQPAALGVGSADLAYPVVFAAGLNATHPHQLMVPGKEGGVPLAPNQPVHGTQADQERLATCTPSDRTHCAATPSSSEDTETVSNSSEGRASPHDVLETIFVRKVGAFVNKPINQVTLTSLDIPFAMFAPKNLELEDTDPMVNPPDSPETESPLQGSLHSDGSSGGSSGNTHDDFVMIDFKPAFSKDDILPMDLGTFYREFQNPPQLSSLSIDIGAQSMAEDLDSLPEKLAVHEKNVREFDAFVETLQ
notes: also called mCh-IDR; source: E. coli Rosetta pLysS, purified; not shown: mCherry, N-terminal, kept
Regarding B5, the binding result in test [3] was “binds”.

B6: GFP-tagged ATG13 IDR (191–517 aa) (domain or fragment, UniProt O75143 191-517, looked up)
chain: B5 chain
notes: also called full IDR; full-length IDR; source: E. coli Rosetta pLysS, purified; not shown: EGFP, N-terminal, kept
As to B6, the binding result in test [1] is given as “binds”.

The values are drawn from PMC12339401 (Nature Cell Biology, 2025).
